The subject of data set [1] is Aa-Cascade Avi-Cas6f, mSav-ATTO647N labelled (Aggregatibacter actinomycetemcomitans). In words: single-molecule DNA curtains. Particulars: EMSA: 1x TAE, 200 mM NaCl, 10% glycerol, 0.1 mg/mL BSA, 20 nM DNA, 37 C (22 C for AcrIF9 mutants), 1% agarose, footprint: same buffer, 2 mM KMnO4, AFM: …. On the technique in general: In EMSA bound probe runs differently from free probe, usually more slowly.

The test system of data set [2] is Aa-Cascade Avi-Cas6f, mSav-ATTO647N labelled;Aa1-AcrIF9 (Aggregatibacter actinomycetemcomitans;Aggregatibacter actinomycetemcomitans?). Briefly: single-molecule DNA curtains. The settings on record: with AcrIF9, mean off-target dwell time 18.6 s, EMSA: 1x TAE, 200 mM NaCl, 10% glycerol, 0.1 mg/mL BSA, 20 nM DNA, 37 C (22 C for AcrIF9 mutants), 1% agarose, footprint: same buffer, 2 mM KMnO4, AFM: ….

For the substance bacteriophage lambda DNA with target, the values for the binding signal (% on-target events) in data set [1] and in data set [2] were 18 and 8, respectively.

Values taken from paper PMC9478129.
